In paper PMC8298264, “Function of cofactor Akirin2 in the regulation of gene expression in model human neutrophil-like HL60 cells” (Bioscience Reports, 2021):

B1: sp¦Q16543¦CDC37_HUMAN (protein, UniProt Q16543 1-378, looked up)
Hsp90 co-chaperone Cdc37: MVDYSVWDHIEVSDDEDETHPNIDTASLFRWRHQARVERMEQFQKEKEELDRGCRECKRKVAECQRKLKELEVAEGGKAELERLQAEAQQLRKEERSWEQKLEEMRKKEKSMPWNVDTLSKDGFSKSMVNTKPEKTEEDSEEVREQKHKTFVEKYEKQIKHFGMLRRWDDSQKYLSDNVHLVCEETANYLVIWCIDLEVEEKCALMEQVAHQTIVMQFILELAKSLKVDPRACFRQFFTKIKTADRQYMEGFNDELEAFKERVRGRAKLRIEKAMKEYEEEERKKRLGPGGLDPVEVYESLPEELQKCFDVKDVQMLQDAISKMDPTDAKYHMQRCIDSGLWVPNSKASEAKEGEEAGPGDPLLEAVPKTGDEKDVSV
B2: Pre-rRNA-processing protein TSR1 homolog (protein, UniProt Q2NL82 1-804, looked up)
Pre-rRNA-processing protein …: MAAHRPGPLKQQNKAHKGGRHRGRGSAQRDGKGRLALKTLSKKVRKELSRVDQRHRASQLRKQKKEAVLAEKRQLGGKDGPPHQVLVVPLHSRISLPEAMQLLQDRDTGTVHLNELGNTQNFMLLCPRLKHRWFFTSARPGDLHVVLDMAKVADTILFLLDPLEGWDSTGDYCLSCLFAQGLPTYTLAVQGISGLPLKKQIDTRKKLSKAVEKRFPHDKLLLLDTQQEAGMLLRQLANQKQQHLAFRDRRAYLFAHAVDFVPSEENNLVGTLKISGYVRGQTLNVNRLLHIVGYGDFQMKQIDAPGDPFPLNPRGIKPQKDPDMAMEICATDAVDDMEEGLKVLMKADPGRQESLQAEVIPDPMEGEQTWPTEEELSEAKDFLKESSKVVKKVPKGTSSYQAEWILDGGSQSGGEGDEYEYDDMEHEDFMEEESQDESSEEEEEYETMTIGESVHDDLYDKKVDEEAEAKMLEKYKQERLEEMFPDEVDTPRDVAARIRFQKYRGLKSFRTSPWDPKENLPQDYARIFQFQNFTNTRKSIFKEVEEKEVEGAEVGWYVTLHVSEVPVSVVECFRQGTPLIAFSLLPHEQKMSVLNMVVRRDPGNTEPVKAKEELIFHCGFRRFRASPLFSQHTAADKHKLQRFLTADMALVATVYAPITFPPASVLLFKQKSNGMHSLIATGHLMSVDPDRMVIKRVVLSGHPFKIFTKMAVVRYMFFNREDVLWFKPVELRTKWGRRGHIKEPLGTHGHMKCSFDGKLKSQDTVLMNLYKRVFPKWTYDPYVPEPVPWLKSEISSTVPQGGME
B3: Inter-alpha-trypsin inhibitor heavy chain H2 (protein, UniProt P19823 55-702, looked up)
Inter-alpha-trypsin inhibitor …: SLPGESEEMMEEVDQVTLYSYKVQSTITSRMATTMIQSKVVNNSPQPQNVVFDVQIPKGAFISNFSMTVDGKTFRSSIKEKTVGRALYAQARAKGKTAGLVRSSALDMENFRTEVNVLPGAKVQFELHYQEVKWRKLGSYEHRIYLQPGRLAKHLEVDVWVIEPQGLRFLHVPDTFEGHFDGVPVISKGQQKAHVSFKPTVAQQRICPNCRETAVDGELVVLYDVKREEKAGELEVFNGYFVHFFAPDNLDPIPKNILFVIDVSGSMWGVKMKQTVEAMKTILDDLRAEDHFSVIDFNQNIRTWRNDLISATKTQVADAKRYIEKIQPSGGTNINEALLRAIFILNEANNLGLLDPNSVSLIILVSDGDPTVGELKLSKIQKNVKENIQDNISLFSLGMGFDVDYDFLKRLSNENHGIAQRIYGNQDTSSQLKKFYNQVSTPLLRNVQFNYPHTSVTDVTQNNFHNYFGGSEIVVAGKFDPAKLDQIESVITATSANTQLVLETLAQMDDLQDFLSKDKHADPDFTRKLWAYLTINQLLAERSLAPTAAAKRRITRSILQMSLDHHIVTPLTSLVIENEAGDERMLADAPPQDPSCCSGALYYGSKVVPDSTPSWANPSPTPVISMLAQGSQVLESTPPPHVMRVEND
B4: sp¦Q9Y244¦POMP_HUMAN (protein, UniProt Q9Y244 1-141, looked up)
Proteasome maturation protein: MNARGLGSELKDSIPVTELSASGPFESHDLLRKGFSCVKNELLPSHPLELSEKNFQLNQDKMNFSTLRNIQGLFAPLKLQMEFKAVQQVQRLPFLSSSNLSLDVLRGNDETIGFEDILNDPSQSEVMGEPHLMVEYKLGLL
B5: sp¦P60981¦DEST_HUMAN (protein, UniProt P60981 2-165, looked up)
Destrin: ASGVQVADEVCRIFYDMKVRKCSTPEEIKKRKKAVIFCLSADKKCIIVEEGKEILVGDVGVTITDPFKHFVGMLPEKDCRYALYDASFETKESRKEELMFFLWAPELAPLKSKMIYASSKDAIKKKFQGIKHECQANGPEDLNRACIAEKLGGSLIVAFEGCPV
B6: sp¦P11279¦LAMP1_HUMAN (protein, UniProt P11279 29-417, looked up)
Lysosome-associated membrane …: AMFMVKNGNGTACIMANFSAAFSVNYDTKSGPKNMTFDLPSDATVVLNRSSCGKENTSDPSLVIAFGRGHTLTLNFTRNATRYSVQLMSFVYNLSDTHLFPNASSKEIKTVESITDIRADIDKKYRCVSGTQVHMNNVTVTLHDATIQAYLSNSSFSRGETRCEQDRPSPTTAPPAPPSPSPSPVPKSPSVDKYNVSGTNGTCLLASMGLQLNLTYERKDNTTVTRLLNINPNKTSASGSCGAHLVTLELHSEGTTVLLFQFGMNASSSRFFLQGIQLNTILPDARDPAFKAANGSLRALQATVGNSYKCNAEEHVRVTKAFSVNIFKVWVQAFKVEGGQFGSVEECLLDENSMLIPIAVGGALAGLVLIVLIAYLVGRKRSHAGYQTI
B7: Myristoylated alanine-rich C-kinase substrate (protein, UniProt P29966 2-332, looked up)
Myristoylated alanine-rich …: GAQFSKTAAKGEAAAERPGEAAVASSPSKANGQENGHVKVNGDASPAAAESGAKEELQANGSAPAADKEEPAAAGSGAASPSAAEKGEPAAAAAPEAGASPVEKEAPAEGEAAEPGSPTAAEGEAASAASSTSSPKAEDGATPSPSNETPKKKKKRFSFKKSFKLSGFSFKKNKKEAGEGGEAEAPAAEGGKDEAAGGAAAAAAEAGAASGEQAAAPGEEAAAGEEGAAGGDPQEAKPQEAAVAPEKPPASDETKAAEEPSKVEEKKAEEAGASAAACEAPSAAGPGAPPEQEAAPAEEPAAAAASSACAAPSQEAQPECSPEAPPAEAAE
B8: sp¦O00154¦BACH_HUMAN (protein, UniProt O00154 1-380, looked up)
Cytosolic acyl coenzyme A …: MKLLARALRLCEFGRQASSRRLVAGQGCVGPRRGCCAPVQVVGPRADLPPCGACITGRIMRPDDANVAGNVHGGTILKMIEEAGAIISTRHCNSQNGERCVAALARVERTDFLSPMCIGEVAHVSAEITYTSKHSVEVQVNVMSENILTGAKKLTNKATLWYVPLSLKNVDKVLEVPPVVYSRQEQEEEGRKRYEAQKLERMETKWRNGDIVQPVLNPEPNTVSYSQSSLIHLVGPSDCTLHGFVHGGVTMKLMDEVAGIVAARHCKTNIVTASVDAINFHDKIRKGCVITISGRMTFTSNKSMEIEVLVDADPVVDSSQKRYRAASAFFTYVSLSQEGRSLPVPQLVPETEDEKKRFEEGKGRYLQMKAKRQGHAEPQP
B9: sp¦P27348¦1433T_HUMAN (protein, UniProt P27348 1-245, looked up)
14-3-3 protein theta: MEKTELIQKAKLAEQAERYDDMATCMKAVTEQGAELSNEERNLLSVAYKNVVGGRRSAWRVISSIEQKTDTSDKKLQLIKDYREKVESELRSICTTVLELLDKYLIANATNPESKVFYLKMKGDYFRYLAEVACGDDRKQTIDNSQGAYQEAFDISKKEMQPTHPIRLGLALNFSVFYYEILNNPELACTLAKTAFDEAIAELDTLNEDSYKDSTLIMQLLRDNLTLWTSDSAGEECDAAEGAEN
B10: sp¦O14737¦PDCD5_HUMAN (protein, UniProt O14737 2-125, looked up)
Programmed cell death protein …: ADEELEALRRQRLAELQAKHGDPGDAAQQEAKHREAEMRNSILAQVLDQSARARLSNLALVKPEKTKAVENYLIQMARYGQLSEKVSEQGLIEILKKVSQQTEKTTTVKFNRRKVMDSDEDDDY

Tested on: human HL60 cells
Test: SWATH-MS proteomics, differential protein representation, akirin2 KO vs WT HL60 cells
Type: cell-based
Procedure: Total proteins were extracted from WT and akirin2 KO HL60 cells using the AllPrep DNA/RNA/Protein Mini Kit (Qiagen) and protein concentration was determined using the BCA Protein Assay with BSA (Sigma–Aldrich) as standard. Protein extracts (150 µg per sample, n=3 biological replicates) from each WT and KO cells were trypsin digested using the FASP Protein Digestion Kit (Expedeon Ltd., Abcam, Cambridge, U.K.) and sequencing grade trypsin (Promega, Madison, WI, U.S.A.) following manufacturer’s recommendations. The resulting peptides were finally desalted on to OMIX Pipette tips C18 (Agilent Technologies, Santa Clara, CA, U.S.A.), dried down and stored at −20 °C until mass spectrometry analysis. […] Three micrograms of each protein digest from the three biological replicates of WT and akirin2 KO HL60 cells were used for the generation of the reference spectral ion library as part of the SWATH-MS analysis.
Peptides were eluted in a 120-min gradient from 5 to 30% solvent B in solvent A followed by 15-min gradient from 30 to 60% solvent B in solvent A (solvent A: 0.1% formic acid in water, solvent B: 0.1% formic acid in acetonitrile) and directly injected into the mass spectrometer for analysis. For IDA experiments, the mass spectrometer was set to scanning full spectra (350–1400 m/z) using 250 ms accumulation time per spectrum, followed by up to 50 MS/MS scans (100–1500 m/z). Candidate ions with a charge state between +2 and +5 counts per second above a minimum threshold of 100 were isolated for fragmentation. One MS/MS spectrum was collected for 100 ms, before adding those precursor ions to the exclusion list for 15 s (mass spectrometer operated by Analyst TF 1.6, AB Sciex). Dynamic background subtraction was turned off. MS/MS analyses were recorded in high-sensitivity mode with rolling collision energy on and a collision energy spread of 5. For SWATH quantitative analysis, six independent samples (three replicates from WT and akirin2 KO HL60 cells, 5 µg each) were subjected to the cyclic DIA of mass spectra using the SWATH variable windows calculator (V 1.0, AB Sciex) and the SWATH acquisition method editor (AB Sciex), similar to established methods. […] For these experiments, a 50-ms survey scan (350–1400 m/z) was acquired at the beginning of each cycle, and SWATH–MS/MS spectra were collected from 100–1500 m/z for 70 ms at high-sensitivity mode, resulting in a cycle time of 3.6 s. Collision energy for each window was determined according to the calculation for a charge +2 ion-centered upon the window with a collision energy spread of 15. To create a spectral library of all the detectable peptides in the samples, the IDA MS raw files were combined and subjected to database search in unison using ProteinPilot software v. 5.0.1 (AB Sciex) with the Paragon algorithm. […] The detected protein threshold was set at 0.05. An independent false discovery rate (FDR) analysis, using the target–decoy approach provided by Protein Pilot (AB Sciex; https://sciex.com/products/software/proteinpilot-software), was used to assess the quality of identifications. Positive identifications were considered when identified proteins reached 1% of global FDR. […] Global normalization was performed according to the Total Area Sums (TAS) of all detected proteins in the samples. […] Heatmaps were prepared using the Heatmapper (http://www.heatmapper.ca/expression/) with average linkage and Euclidean distance measurement method.

[1] = Over-represented in KO, KO vs WT HL60 cells
[2] = SWATH-MS, akirin2 KO vs WT HL60 cells, over-represented in KO

Row | Molecule | Fold Change [1] | Log (Fold Change) [1] | Fold Change [2] | Log (Fold Change) [2]
1 | B1 | 1.314 | 0.1187 |  | 
2 | B2 |  |  | 3.379 | 0.5288
3 | B3 |  |  | 3.859 | 0.5865
4 | B4 | 1.341 | 0.1275 |  | 
5 | B5 | 1.321 | 0.1208 |  | 
6 | B6 | 1.301 | 0.1143 |  | 
7 | B7 |  |  | 3.833 | 0.5836
8 | B8 | 1.305 | 0.1157 |  | 
9 | B9 | 1.296 | 0.1126 |  | 
10 | B10 | 1.307 | 0.1162 |  | 
